Measured values published in doi:10.1101/2020.12.29.424742.
“And” between values parts separate entries of the source, which are not always exact repeats. Equal entries are not always repeated. One block for each substance: values may come before it.

Assays:
Experiment in all cases: SEC
[1] = biological target: DEBS3M5 KS0-AT A539D (Saccharopolyspora erythraea)
[2] = biological target: DEBS3M5 KS0-AT A539E (Saccharopolyspora erythraea)
[3] = biological target: DEBS3M5 KS0-AT A539F (Saccharopolyspora erythraea)
[4] = biological target: DEBS3M5 KS0-AT A539S (Saccharopolyspora erythraea)
[5] = biological target: DEBS3M5 KS0-AT R850A (Saccharopolyspora erythraea)
[6] = biological target: DEBS3M5 KS0-AT R850E (Saccharopolyspora erythraea)
[7] = biological target: DEBS3M5 KS0-AT R850F (Saccharopolyspora erythraea)
[8] = biological target: DEBS3M5 KS0-AT R850K (Saccharopolyspora erythraea)
[9] = biological target: DEBS3M5 KS0-AT R850S (Saccharopolyspora erythraea)
[10] = biological target: DEBS3M5 KS0-AT didomain, wild type (6-deoxyerythronolide B synthase module 5, KS knockout) (Saccharopolyspora erythraea)
[11] = biological target: PikAIIIM5 KS0-AT didomain (pikromycin synthase module 5) (Streptomyces venezuelae)
[12] = biological target: Pks7 KS0-AT didomain (Saccharopolyspora erythraea)
[13] = biological target: RAPS3M14 KS0-AT didomain (rapamycin synthase module 14) (Streptomyces hygroscopicus)

stoichiometry N [1]: 4 and 2
Substance: DEBS3M5 KS0-AT A539D (domain or fragment)

stoichiometry N [2]: 4 and 2
Substance: DEBS3M5 KS0-AT A539E (domain or fragment)

stoichiometry N [3]: 4 and 2
Substance: DEBS3M5 KS0-AT A539F (domain or fragment)

stoichiometry N [4]: 4 and 2
Substance: DEBS3M5 KS0-AT A539S (domain or fragment)

stoichiometry N [5]: 4 and 2
Substance: DEBS3M5 KS0-AT R850A (domain or fragment)

stoichiometry N [6]: 4 and 2
Substance: DEBS3M5 KS0-AT R850E (domain or fragment)

stoichiometry N [7]: 4 and 2
Substance: DEBS3M5 KS0-AT R850F (domain or fragment)

stoichiometry N [8]: 4 and 2
Substance: DEBS3M5 KS0-AT R850K (domain or fragment)

stoichiometry N [9]: 4 and 2
Substance: DEBS3M5 KS0-AT R850S (domain or fragment)

stoichiometry N [10]: 4 and 2
Substance: DEBS3M5 KS0-AT didomain, wild type (6-deoxyerythronolide B synthase module 5, KS knockout) (domain or fragment)

Substance: PikAIIIM5 KS0-AT didomain (pikromycin synthase module 5) (domain or fragment)
stoichiometry N [11]: 2

stoichiometry N [12]: 2
Substance: Pks7 KS0-AT didomain (domain or fragment)

Substance: RAPS3M14 KS0-AT didomain (rapamycin synthase module 14) (domain or fragment)
stoichiometry N [13]: 4
